Laboratory results reported in the supplement of paper PMC10126150.
± gives the standard deviation of the averaged measurements.

What follows are sequences tested on ATP (assay: switch fluorescence ratio, 500 uM ATP over buffer (Cy3 cluster intensity, sum of 5 cycles each) (fold (ratio)); higher = stronger signal-on switching upon ATP binding; sequences stand for … in TCGTCGGCAGCGTCAGATGTGTATAAGAGACAGTTTTTTTTTTTTTTTTTTTTTTTTT…TC). Conditions: aptamer strand: ATP DNA aptamer (quencher-CACCTGGGGGAGTATTGCGGAGGAAGG + anchor), 100 nM annealed; ATP concentration: 500 uM.
Outline: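 Imaging in selection buffer was followed by imaging after 15 min with 500 uM ATP at 22 °C, for Cy3-labelled switching-strand clusters annealed to 100 nM quencher-labelled ATP aptamer on a modified Illumina MiSeq flow-cell. Five of these buffer/ATP cycles ran, separated by NaOH stripping and re-annealing. The fluorescence ratio per cluster is summed target-cycle over summed buffer-cycle Cy3 intensity, averaged per switch-domain sequence; clusters outside 100-1000 RFU were removed.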
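Also: ATP exposure 15 min at 22 °C before imaging.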

| Sequence | switch fluorescence ratio |
| --- | --- |
| ATTTGGGGGA | 0.999 ± 0.029 |
| TACTGCCAGC | 1.08 ± 0.054 |
| AAGTCTTAAG | 1.04 ± 0.013 |
| TTGTTATTCG | 1.01 ± 0.087 |
| ATATATCGTG | 0.995 ± 0.019 |
| GGAAAGAGTT | 1.07 ± 0.056 |
| CGGTTGCTTA | 0.987 ± 0.012 |
| CCGTTGAAAT | 1.22 ± 0.011 |
| TGTATTTTT | 0.98586 ± 0.00097 |
| GACAGCGGCG | 1.01 ± 0.032 |
| ATCGGGGGCC | 0.973 ± 0.042 |
| TGGGGGGTTC | 1.04 ± 0.082 |
| AAATGGGGGA | 0.991 ± 0.04 |
| GCGTTTAAGT | 1.02 ± 0.032 |
| ATAGTGCTGT | 0.97717 ± 0.00097 |
| TGGGACCAGG | 1.05 ± 0.03 |
| AGAAACGGAA | 1.27 ± 0.35 |
| CAGCAGGGGC | 1.11 ± 0.024 |
| TGCAAAGATT | 0.99 ± 0.016 |
| GGGTACAGAT | 0.986 ± 0.0099 |
| TTTGGGGGCC | 1.009 ± 0.0061 |
| GGTAGGGGGT | 1 ± 0.03 |
| TTGCGCTCGT | 0.993 ± 0.011 |

| Sequence | switch fluorescence ratio |
| --- | --- |
| CTAGGTTGAG | 0.983 ± 0.019 |
| ATGGTCCGGT | 0.988 ± 0.015 |
| TATTATGGAG | 0.988 ± 0.021 |
| TCAGGAAAAG | 0.989 ± 0.019 |
| AGGACCATGT | 1.01 ± 0.02 |
| TCGGGGTATG | 0.982 ± 0.014 |
| ATATGAATA | 0.9987 ± 0.0037 |
| TAAATCCGGG | 1 ± 0.022 |
| GGAACACACG | 1.32 ± 0.039 |
| AATTGGACTA | 0.976 ± 0.063 |
| TTGGGGTGGC | 0.965 ± 0.061 |
| CGTTTGGGTG | 1.02 ± 0.055 |
| TCTGAAGGTG | 1.28 ± 0.22 |
| ATTGTTTTGC | 1.009 ± 0.0025 |
| CGTTTGTATC | 1.02 ± 0.022 |
| TTGTTTGTTG | 0.994 ± 0.019 |
| TTTACAAAGT | 0.994 ± 0.049 |
| TATGGGCGTT | 1 ± 0.011 |
| ATGCATGGGG | 1.01 ± 0.017 |
| CTGAGTATGG | 1.01 ± 0.0034 |
| TAGGAGGGTG | 1.01 ± 0.035 |
| TTTAAGCGTT | 1.054 ± 0.0066 |
| GAGTTAGTAA | 0.999 ± 0.045 |

| Sequence | switch fluorescence ratio |
| --- | --- |
| ATGGATAAGC | 0.997 ± 0.011 |
| TCTTGATTAT | 0.9795 ± 0.0085 |
| AGGTTTCTCT | 0.966 ± 0.031 |
| TGACGTCTGG | 1.015 ± 0.0071 |
| GCTGAAGTTT | 0.979 ± 0.038 |
| CGAAAGATGG | 1 ± 0.034 |
| TGGTTGTAAG | 1.03 ± 0.024 |
| AATGGCAATT | 0.995 ± 0.033 |
| ATACGAGTTA | 1.02 ± 0.021 |
| TCGTTTTGAC | 1.02 ± 0.023 |
| TTGCATACGT | 1.61 ± 0.76 |
| CATAAGGTAT | 0.999 ± 0.046 |
| GATATTGGCG | 0.956 ± 0.013 |
| GACGGGGGAA | 1.82 ± 1.3 |
| TCGTTGGCTT | 1 ± 0.011 |
| GAGGGGGGTA | 0.989 ± 0.02 |
| CCTCTGGCGC | 3.9 ± 0.3 |
| TTTTATAAGT | 1.03 ± 0.021 |
| TTGTATGGGT | 0.98 ± 0.019 |
| ACAGGAGGAG | 0.9859 ± 3.2e-05 |
| GTGGGTTGTT | 0.9719 ± 0.005 |
| GGTATGCGGT | 0.974 ± 0.027 |
| TTTTATGGGG | 0.968 ± 0.031 |

| Sequence | switch fluorescence ratio |
| --- | --- |
| GTGTGTTTGT | 0.955 ± 0.038 |
| AAGCCCTAGC | 0.976 ± 0.036 |
| TTGGGAACGT | 1 ± 0.11 |
| CCTGGAGAGT | 1.02 ± 0.059 |
| GATGGTTTTT | 1 ± 0.016 |
| CTGTGGGTCC | 0.976 ± 0.034 |
| CGGTGTGGGG | 1.01 ± 0.032 |
| AGAAAAAGTT | 1.017 ± 0.0048 |
| AACCGGTTAG | 0.996 ± 0.011 |
| GATTGATGGG | 0.995 ± 0.024 |
| TTTGTTACGG | 0.978 ± 0.046 |
| AAGTATTAGA | 0.964 ± 0.011 |
| CGACCGAACA | 1.09 ± 0.014 |
| ATTATAAGTG | 0.96 ± 0.016 |
| TTTATAGCGT | 0.974 ± 0.038 |
| ATAGAAGGGT | 1.01 ± 0.026 |
| TTTTGAGACG | 1.09 ± 0.011 |
| AAGATCATAA | 0.994 ± 0.019 |
| TGCTGTCTGT | 0.9903 ± 0.0058 |
| CTTTGAAGTT | 1.01 ± 0.029 |
| ACTGGGTCCG | 1 ± 0.057 |
| CTCATATGGA | 1.01 ± 0.048 |
| TAGGGGAAGG | 1.03 ± 0.05 |

| Sequence | switch fluorescence ratio |
| --- | --- |
| TTAGGAATGT | 1.03 ± 0.047 |
| GTGATGGGTT | 0.953 ± 0.014 |
| TTTCATGGCG | 0.97893 ± 0.0002 |
| CACCGCGTCG | 1.21 ± 0.017 |
| TTTCAAGTGG | 1.014 ± 0.0096 |
| TGTAGCTTGT | 1.09 ± 0.075 |
| GACGAGCGGT | 1.3 ± 0.22 |
| GGTTAAACGG | 1.02 ± 0.013 |
| TCGGGGGGCG | 0.977 ± 0.034 |
| TCGAGATGTA | 1.03 ± 0.067 |
| TGAAATTTAG | 1.01 ± 0.047 |
| TCACGATTGG | 1.02 ± 0.02 |
| CGAGCCTGGT | 1.02 ± 0.035 |
| AAGGCGTGAG | 1.02 ± 0.016 |
| TGGTCCGGGA | 1.03 ± 0.029 |
| GGATTAGACG | 0.955 ± 0.062 |
| ATGACGAAAA | 1.04 ± 0.058 |
| TCATTGTTAT | 0.999 ± 0.036 |
| TAGGTGGTGC | 0.986 ± 0.045 |
| TAATGTTCTT | 1 ± 0.033 |
| TCCTTGTAGT | 1.11 ± 0.17 |
| GATAGAGCAT | 1.01 ± 0.013 |
| AAAGGAAGAT | 0.993 ± 0.055 |

| Sequence | switch fluorescence ratio |
| --- | --- |
| TTTTTTCCCG | 1.09 ± 0.11 |
| GTATTCGTTT | 1 ± 0.028 |
| TTGTGGTTTC | 1.01 ± 0.017 |
| CGAAAGGAA | 1.01 ± 0.011 |
| TTTTGATGTT | 0.988 ± 0.031 |
| GATAAGAGCC | 1.008 ± 0.0024 |
| AATGGCAATG | 1.05 ± 0.026 |
| TTTGACGCGT | 1.02 ± 0.016 |
| GGGTGTGGGA | 0.997 ± 0.017 |
| GGGGTAATCT | 0.99977 ± 0.00079 |
| GAAAAAAATT | 1.02 ± 0.024 |
| TTTTCATCTG | 1.03 ± 0.098 |
| GGAATGTTTT | 0.994 ± 0.023 |
| AAGGATAGAT | 0.985 ± 0.025 |
| TTGAATATCT | 1.03 ± 0.032 |
| ATGAGGCGAA | 1.01 ± 0.011 |
| GGGTAAATTA | 0.989 ± 0.042 |
| GTGTTAGAT | 0.964 ± 0.043 |
| CTGCTGGGGC | 1.05 ± 0.026 |
| AAGGTTGACC | 1.01 ± 0.021 |
| TGATGTTCGA | 1 ± 0.028 |
| TGGTAGGGGG | 0.9867 ± 0.0046 |
| GGGGTGGCGT | 1.07 ± 0.1 |

| Sequence | switch fluorescence ratio |
| --- | --- |
| ATAGTTTTTT | 0.977 ± 0.017 |
| TTGGTTTGGT | 0.988 ± 0.03 |
| AGAGAAGGGA | 1.002 ± 0.0071 |
| AGGTTATACG | 1.01 ± 0.022 |
| TGGGTTAGGG | 1.03 ± 0.044 |
| AGGGCGTACA | 0.992 ± 0.01 |
| GGTAGGTGGT | 0.98 ± 0.022 |
| GTTAATCTTA | 0.9873 ± 0.0036 |
| AAATGCAGCT | 0.977 ± 0.016 |
| AGGGTTAAAT | 1 ± 0.012 |
| AGCTACGTTT | 0.9963 ± 0.0053 |
| TAAGAGACGC | 1.014 ± 0.0061 |
| AACTGGTTG | 0.9804 ± 0.009 |
| TAGGGACGGC | 1.07 ± 0.095 |
| CCGAGAGAGC | 1.13 ± 0.04 |
| CAAATTTGGG | 1.02 ± 0.014 |
| TGGAAGGGTG | 1.05 ± 0.017 |
| TTAAGTCAAG | 0.98687 ± 0.00044 |
| TGGTATTGGT | 0.9655 ± 0.0041 |
